From US6825035, “Compositions and methods for modulating expression within smooth muscle cells” (Setagon, Inc.) come the findings set out here.

This data set has as its target T1, Serum response factor (SRF) (UniProt D3ZHH8 D3ZHH8:1-504).
T1 sequence: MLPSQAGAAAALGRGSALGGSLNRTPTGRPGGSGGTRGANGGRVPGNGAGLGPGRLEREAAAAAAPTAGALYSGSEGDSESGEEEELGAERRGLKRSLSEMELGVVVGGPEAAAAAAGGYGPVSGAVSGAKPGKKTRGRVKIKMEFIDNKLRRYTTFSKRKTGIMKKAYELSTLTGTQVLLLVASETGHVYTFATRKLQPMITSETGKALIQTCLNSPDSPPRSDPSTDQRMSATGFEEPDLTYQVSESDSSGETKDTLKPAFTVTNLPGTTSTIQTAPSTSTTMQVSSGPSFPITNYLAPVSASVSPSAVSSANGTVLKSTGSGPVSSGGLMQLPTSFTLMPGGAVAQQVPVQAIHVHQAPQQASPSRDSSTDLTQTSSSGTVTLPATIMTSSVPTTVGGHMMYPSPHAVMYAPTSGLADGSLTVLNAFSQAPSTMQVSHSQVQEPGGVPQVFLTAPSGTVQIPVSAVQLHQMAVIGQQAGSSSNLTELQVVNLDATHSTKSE
The data set can be described thus: EMSA; supershift with SRF antibody; binds more avidly than CArG A and B; 10 mM Tris pH 7.5, 100 mM KCl, 50 mM NaCl, 1 mM EDTA, poly(dI-dC), room temp. As to conditions: protein: synthetic; tags: endogenous SRF in rat aortic SMC nuclear extract, identified by SRF antibody supershift; chain copies: 2; label: 32P end label. As to the method:
6.1.4 Preparation of Nuclear Extracts, In Vitro Synthesis of SRF, and Electromobility Shift Assays Nuclear extracts were prepared from confluent rat aortic SMCs using the methods of Dignam (Dignam J D, et al., *Nucleic Acids Res.* 1983;11:1475–1489). Culture conditions matched those used for transient transfection assays. Oligonucleotides used in EMSAs were purchased commercially (Operon Technologies) and include the following: CArG A, 5'-[…]-3' (SEQ ID NO:14); CArG B, 5'-[…]-3' (SEQ ID NO:15); Intronic CArG, 5'-[…]-3' (SEQ ID NO:16). Probes were ^32P end labeled and annealed. All probes were purified on a 6% acrylamide gel, eluted in TE, and precipitated twice in ethanol.
EMSAs were performed with 20 µl of binding reaction that included=30 pg of labeled probe, 5 µg of SMC nuclear extract 0.2 to 0.6 µg of poly (dI-dC) in 1×binding buffer (10 mM TrisHCl (pH 7.5), 100 mM KCI, 50 mM NaCl, 1 mM dithiothreitol, 1 mM EDTA, and 5% glycerol). Following a 30 min incubation at room temperature, the samples were subjected to electrophoresis on a 5% polyacrylamide gel, which had been pre-run at 170V for 1 hr. Electrophoresis was performed at 170V in 0.5×TBE (45 mM Tris Borate, 1 mM EDTA). Gels were dried and exposed to film for 24–72 h at −70 ° C. […]
(Mobility shift assays separate free from complexed probe on a gel.)

B1: Intronic CArG (SM alpha-actin first intron) (dsDNA)
DNA 1: TTTTACCTAATTAGGAAATG
DNA 2: CATTTCCTAATTAGGTAAAA
Regarding B1, the binding result is given as “binds”.
